The values that follow come from patent US10429300B2, “Surface plasmon resonance approach to monitor protein-ligand interactions” (The Johns Hopkins University, priority 2015, dated 2019).

For assay [1], the target named is T1, rNav1.2a VSD II paddle peptide (V843A, SEQ ID NO: 2) (Rattus norvegicus, UniProt P04775, V843A).
T1 construct: purchased ProteoGenix; host or cells: chemical synthesis (Fmoc solid phase)
T1 sequence (P04775 832-856 V843A): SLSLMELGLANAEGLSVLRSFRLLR
Nature of the assay: SPR on immobilized rNav1.2a VSD II paddle peptide. Type of assay: binding. The following applies: 100 nM toxin; 500 fmol peptide. How it is done: SPR experiments were performed at 25° C. on a Biacore™ T200 instrument (GE Healthcare) using 150 mM NaCl, 3 mM EDTA, 0.005% surfactant P20, and 10 mM HEPES-NaOH, pH 7.4, for the coupling protocol or 50 mM phosphate, pH 7.2, as running buffer. Neutravidin (Thermo Fisher Scientific) was immobilized on CM5 sensor chips (GE Healthcare) using an amine coupling chemistry. All chemicals were obtained from Sigma-Aldrich. […] In all SPR experiments, nonspecific binding obtained in the control flow cell was subtracted from the signal obtained in the experimental flow cell. For qualitative binding analysis, toxins (100 nM in running buffer containing 0.1% BSA) were injected at a flow rate of 20 μl/min over 2 min. […] In between injections, the surface of the sensor chip was regenerated by injecting 1 M NaCl (15 s at 30 l/min). The bulk signal caused by refractive index differences between the flow buffer and the buffer containing the analyte was systematically excluded from the data-fitting process. It is worth noting that isolating a paddle motif (ligand) can induce conformational changes that can affect toxin (analyte) efficacy. […] Sensorgrams can reveal such ligand heterogeneity by displaying biphasic dissociation curves that cannot be fitted with the frequently used Langmuir model, which assumes a 1:1 stoichiometry of analyte to ligand. To account for a possible heterogeneity of surface sites, we calculated the rate constants and affinity equilibrium dissociation constants (KD) for AaHII by a fit to a heterogeneous ligand model incorporated into the Biacore T200 Evaluation™ software (v1.0). This model assumes the presence of two sites on the ligand that can bind analyte and can be described by these equations in which A represents the analyte and B1/B2 represents the heterogeneous ligand:
(A) Shown are the CD spectra of the rNav1.2a VSD II and IV paddle peptides used in this paper. […] (B) Representative association and dissociation kinetic curves obtained using SPR after the application of varying concentrations of AaHII (15-2,000 nM) over a sensor chip to which 50 fmol of the rNav1.2a VSD IV paddle peptide was linked. Toxin was applied after obtaining a steady baseline. Colored traces represent toxin binding obtained after subtraction of the signal from the control flow cell. […] Toxin concentrations are indicated on the right in a shade of gray corresponding to the sensorgram. (C) Representative SPR traces after the application of 100 nM KTX, AaHI, AaHII, LqqV, BomIV, TsVII, and CssIV over a sensor chip to which the rNav1.2a VSD II (left) or IV (right) paddle peptide (500 fmol) was linked. Toxin was applied after obtaining a steady baseline. (D) Binding capacities of 100 nM α-scorpion toxins AaHI, AaHII, LqqV, the α-like scorpion toxin BomIV, and the β-scorpion toxins TsVII and CssIV to the VSD II and IV paddle motifs using SPR (error bars represent±SEM). Y-axis represents the maximum RUs obtained after toxin application.
Next, the VSD IV peptide was fixed on SPR sensor chips by adding a K-linked biotin group to the C terminus, resulting in a 32-amino acid peptide altogether (SEQ ID NO: 4 which is mutated SEQ ID NO: 3 of FIG. 2A).

The target of assay [2] is T2, rNav1.2a VSD IV paddle peptide (R1629A/L1630A, SEQ ID NO: 4) (Rattus norvegicus, UniProt P04775, L1630A/R1629A).
T2 construct: purchased ProteoGenix; host or cells: chemical synthesis (Fmoc solid phase)
T2 sequence (P04775 1605-1636 R1629A/L1630A): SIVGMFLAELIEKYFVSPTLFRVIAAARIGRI
As to the kind of experiment: SPR on immobilized rNav1.2a VSD IV paddle peptide. Type of assay: binding. To be noted: 100 nM toxin; 500 fmol peptide.

The subject of the next assay is rNav1.2a. Nature of the assay: Two-electrode voltage-clamp, rNav1.2a expressed in Xenopus oocytes. The assay is classed as cell-based, rat. To be noted: 100 nM toxin; for effect on rNav1.2a fast inactivation: 50-ms test pulse; for fast inactivation time constant (τ) after toxin application: single-exponential fit of current decay, n=3, mean±SEM. The source says:
(§1) The DNA sequence of rat (r)Nav1.2a (provided by A. Goldin, University of California, Irvine, Irvine, Calif.), rKv2.1 (provided by K. J. Swartz, National Institutes of Health), and the rNav1.2a/Kv2.1 VSD II or IV chimera was confirmed by automated DNA sequencing, and cRNA was synthesized using T7 polymerase (mMessage mMachine™ kit; Life Technologies) after linearizing the DNA with appropriate restriction enzymes. Channels were expressed in Xenopus oocytes (obtained from Xenopus 1) and studied after a 1-d incubation after cRNA injection (incubated at 17° C. in 96 mM NaCl, 2 mM KCl, 5 mM HEPES, 1 mM MgCl2, 1.8 mM CaCl2, and 50 μg/ml gentamycin, pH 7.6 with NaOH) using two-electrode voltage-clamp recording techniques (OC-725C; Warner Instruments) with a 150-μl recording chamber. Data were filtered at 4 kHz and digitized at 20 kHz using pClamp™ 10 software (Molecular Devices). Microelectrode resistances were 0.5-1.5 MΩ when filled with 3 M KCl. For Kv chimera channel experiments, the external recording solution contained (mM): 50 KCl, 50 NaCl, 5 HEPES, 1 MgCl2, and 0.3 CaCl2, pH 7.6 with NaOH. For rNav1.2a experiments, the external recording solution contained (mM): 100 NaCl, 5 HEPES, 1 MgCl2, and 1.8 CaCl2, pH 7.6 with NaOH. All experiments were performed at ˜22° C. Leak and background conductances, identified by blocking the channel with agitoxin-2 (provided by K. J. Swartz), have been subtracted for all of the Kv channel currents shown. […] Voltage-activation relationships were obtained by measuring tail currents for Kv channels or steady-state currents and calculating conductance for Nav channels, and a single Boltzmann function was fitted to the data according to I/Imax=[1c+cexp(−zF(Vc−cV1/2)/RT)]^−1, where I/Imax is the normalized tail-current amplitude, z is the equivalent charge, V1/2 is the half-activation voltage, F is Faraday's constant, R is the gas constant, and T is temperature in kelvin. For all channels, voltage-activation relationships were recorded in the absence and presence of toxin. The ratio of currents (I/I0) recorded in the presence (I) and absence (I0) of toxin was calculated for voltages typically ranging from −140 to 10 cmV, depending on the construct. […] The apparent equilibrium dissociation constant (apparent KD) for Kv channels was calculated according to KD=((1/(1c−cFu^1/4))c−c1)[toxin], assuming four independent toxin-binding sites per channel. Results are given as mean±SEM unless noted otherwise. Offline data analysis was performed using Clampfit 10™ (Molecular Devices), Origin 8.0™ (OriginLab), and Excel™ (Microsoft). All chemicals were obtained from Sigma-Aldrich.
(§2) Representative sodium currents were elicited by a 50-ms depolarization to a suitable membrane voltage (−20 to −15 mV) before (black) and after toxin addition (green) from a holding voltage of −90 mV. […] For each toxin, K^+ currents were elicited by a 300-ms depolarization to 0 mV from a holding voltage of −90 mV (tail voltage was −60 mV). […] For each toxin, K^+ currents (top) were elicited by a 300-ms depolarization near the foot of the voltage-activation curve (bottom) from a holding voltage of −90 mV.
A general note: Two-electrode voltage clamp holds a large cell at a set potential and records current.

For assay [3], the system named is rNav1.2a/Kv2.1 VSD IV paddle chimera. Nature of the assay: Two-electrode voltage-clamp, rNav1.2a/Kv2.1 VSD IV paddle chimera in Xenopus oocytes. The assay is classed as cell-based, rat. The following applies: 100 nM toxin; for depolarizing shift in midpoint (V1/2): Boltzmann fit, n=3.
Text: as §1, §2

The test system of the next assay is WT rKv2.1. Nature of the assay: Two-electrode voltage-clamp, WT rKv2.1 in Xenopus oocytes. The assay is classed as cell-based, rat. The following applies: 1 μM toxin. The source says:
The DNA sequence of rat (r)Nav1.2a (provided by A. Goldin, University of California, Irvine, Irvine, Calif.), rKv2.1 (provided by K. J. Swartz, National Institutes of Health), and the rNav1.2a/Kv2.1 VSD II or IV chimera was confirmed by automated DNA sequencing, and cRNA was synthesized using T7 polymerase (mMessage mMachine™ kit; Life Technologies) after linearizing the DNA with appropriate restriction enzymes. Channels were expressed in Xenopus oocytes (obtained from Xenopus 1) and studied after a 1-d incubation after cRNA injection (incubated at 17° C. in 96 mM NaCl, 2 mM KCl, 5 mM HEPES, 1 mM MgCl2, 1.8 mM CaCl2, and 50 μg/ml gentamycin, pH 7.6 with NaOH) using two-electrode voltage-clamp recording techniques (OC-725C; Warner Instruments) with a 150-μl recording chamber. Data were filtered at 4 kHz and digitized at 20 kHz using pClamp™ 10 software (Molecular Devices). Microelectrode resistances were 0.5-1.5 MΩ when filled with 3 M KCl. For Kv chimera channel experiments, the external recording solution contained (mM): 50 KCl, 50 NaCl, 5 HEPES, 1 MgCl2, and 0.3 CaCl2, pH 7.6 with NaOH. For rNav1.2a experiments, the external recording solution contained (mM): 100 NaCl, 5 HEPES, 1 MgCl2, and 1.8 CaCl2, pH 7.6 with NaOH. All experiments were performed at ˜22° C. Leak and background conductances, identified by blocking the channel with agitoxin-2 (provided by K. J. Swartz), have been subtracted for all of the Kv channel currents shown. […] For all channels, voltage-activation relationships were recorded in the absence and presence of toxin. The ratio of currents (I/I0) recorded in the presence (I) and absence (I0) of toxin was calculated for voltages typically ranging from −140 to 10 cmV, depending on the construct. […] The apparent equilibrium dissociation constant (apparent KD) for Kv channels was calculated according to KD=((1/(1c−cFu^1/4))c−c1)[toxin], assuming four independent toxin-binding sites per channel. […]

Assay [4] addresses rNav1.2a/Kv2.1 VSD II paddle chimera. The following applies: read-out: apparent KD, paddle motif in the domain II voltage sensor; cited from earlier work.
Assay [5] relates to rNav1.2a/Kv2.1 VSD IV paddle chimera. To be noted: cited from earlier work.

A value given as a limit tells only on which side of the number the result lay.

Chain of rNav1.2a/Kv2.1 VSD IV paddle chimera (P04775 1605-1636 limits assumed, change not shown): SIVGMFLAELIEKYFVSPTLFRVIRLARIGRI
Chain of rNav1.2a/Kv2.1 VSD II paddle chimera (P04775 832-856 limits assumed, change not shown): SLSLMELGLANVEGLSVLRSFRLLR

For “kaliotoxin (GVEINVKCSGSPQCLKPCKDAGMRFGKCMNRKCHCTPK) [KTX, negative control, reference compound]”, in assay [1], the “SPR binding to VSD II paddle peptide” value is “did not bind”. Besides, the “SPR binding to VSD IV paddle peptide” value in assay [2] was “did not bind”.

B1: AaHI: Nav channel-selective α-scorpion toxin from Androctonus australis hector (protein)
chain: KRDGYIVYPNNCVYHCVPPCDGLCKKNGGSSGSCSFLVPSGLACWCKDLPDNVPIKDTSRKCT
Turning to B1, in the assay with rNav1.2a, the “effect on rNav1.2a fast inactivation” value was “inhibits rNav1.2a fast inactivation” and the “fast inactivation time constant (τ) after toxin application” value (from here on “fast inactivation time constant (τ)”) came out at 4.7±0.1. Further, the “SPR binding to VSD II paddle peptide” value in assay [1] is on record as “a response was not obtained”. Further, in assay [3], the “K+ current inhibition of VSD IV chimera” value is “robust voltage-dependent K^+ current inhibition” and the “depolarizing shift in midpoint (V1/2)” value is about 15 mV. The “effect on WT Kv2.1 K+ current” value with WT rKv2.1 is reported as “insensitive”.

B2: BomIV: α-like scorpion toxin from Buthus occitanus mardochei (protein)
chain: GRDAYIAQPENCVYECAKNSYCNDLCTKNGAKSGYCQWLGKYGNACWCEDLPDNVPIRIPGKCHF
On to B2, for which, in the assay with rNav1.2a, the “effect on rNav1.2a fast inactivation” value is reported as “inhibits rNav1.2a fast inactivation” and the “fast inactivation time constant (τ)” value was 8.5±0.1. In assay [1], the “SPR binding to VSD II paddle peptide” value is on record as “a response was not obtained”. In assay [3], the “K+ current inhibition of VSD IV chimera” value is listed as “robust voltage-dependent K^+ current inhibition” and the “depolarizing shift in midpoint (V1/2)” value was about 26 mV. Moreover, the “effect on WT Kv2.1 K+ current” value with WT rKv2.1 is reported as “insensitive”.

B3: TsVII: β-scorpion toxin from the Brazilian scorpion Tityus serrulatus (protein, UniProt P15226 21-81, looked up)
Beta-mammal/insect toxin Ts1: KEGYLMDHEGCKLSCFIRPSGYCGRECGIKKGSSGYCAWPACYCYGLPNWVKVWDRATNKC
For B3, the “SPR binding to VSD II paddle peptide” value in assay [1] is reported as “responded”. The Kd in assay [4] was 112 ± 12 nM. Besides, the “binding to the VSD IV paddle, electrophysiological data from chimeras” value in assay [5] is on record as “can also bind”. In assay [2], the “SPR binding to VSD IV paddle peptide” value is “responded”.

B4: LqqV: Nav channel-selective α-scorpion toxin from Leiurus quinquestriatus hebraeus (protein)
chain: LKDGYIVDDKNCTFFCGRNAYCNDECKKKGGESGYCQWASPYGNACWCYKLPDRVSIKEKGRCN
For the molecule B4, in the assay on rNav1.2a, the “effect on rNav1.2a fast inactivation” value was “inhibits rNav1.2a fast inactivation” and the “fast inactivation time constant (τ)” value came to 4.6±0.1. Moreover, the “SPR binding to VSD II paddle peptide” value in assay [1] was “a response was not obtained”. Moreover, in assay [3], the “K+ current inhibition of VSD IV chimera” value is “robust voltage-dependent K^+ current inhibition” and the “depolarizing shift in midpoint (V1/2)” value is given as over 50 mV. In addition, the “effect on WT Kv2.1 K+ current” value in the assay on WT rKv2.1 is reported as “insensitive”.
